{"source": "patent US20200283528A1", "about": "(NUMAB THERAPEUTICS, published 2020)", "key": {"[1]": {"molecular_target": "cynomolgus PDL1, recombinant (Sino Biological) / PDL1-Fc chimeric protein (cynomolgus (Macaca fascicularis), UniProt G7PSE7 19-238)", "sequence (G7PSE7 entry or part of it mutant limits assumed)": "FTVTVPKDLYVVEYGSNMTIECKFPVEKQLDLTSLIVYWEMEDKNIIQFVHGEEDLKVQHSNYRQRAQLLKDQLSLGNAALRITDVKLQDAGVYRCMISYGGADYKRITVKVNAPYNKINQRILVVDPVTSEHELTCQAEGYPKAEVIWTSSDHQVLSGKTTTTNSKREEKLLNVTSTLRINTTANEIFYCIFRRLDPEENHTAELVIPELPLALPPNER", "experiment": "SPR Biacore T200; cynomolgus PDL1 (Sino Biological) captured; scFv as analyte", "protocol": "After each analyte injection cycle, the CM5 sensor chip was regenerated and new antigen was captured. The scFvs were injected as analyte using a dose response multicycle kinetic assay with concentrations of the analyte ranging from 0.12 to 30 nM diluted in running buffer for 5 min and dissociation of the protein was allowed to proceed for 12 min. Obtained sensorgrams were fitted using the 1:1 binding model."}, "[2]": {"molecular_target": "T1, human PDL1 expressed on cells (human, UniProt Q9NZQ7 19-290)", "experiment": "cell-based or functional assay"}, "[3]": {"molecular_target": "T1, human PDL1 expressed on cells", "experiment": "cell-based or functional assay", "remark": "listed apart in the source"}}}
{"binder": "PRO1347 (37-20-B03-sc09 scFv) (scFv) DIQMTQSPASLSASVGDRVTITCQASQSIGTYLAWYQQKPGKPPKLLIYRAFILASGVPSRFSGSGSGTDFTLTISSLQPEDFATYYCQSNFYSDSTTIGPNAFGTGTKVTVLGGGGGSGGGGSGGGGSGGGGSEVQLVESGGGLVQPGGSLRLSCAASGFSFNSDYWIYWVRQAPGKGLEWIACIYGGSSGNTQYASWAQGRFTISRDNSKNTVYLQMNSLRAEDTAVYFCARGYVDYGGATDLWGQGTLVTVSS", "values": [{"measurement": "KD, cyno/KD, human", "setting": "[1]", "result": 1.41}, {"measurement": "Kd", "setting": "[1]", "result": 0.0127, "unit": "nM"}, {"measurement": "koff", "setting": "[1]", "result": "8.77e-05", "unit": "s⁻¹"}, {"measurement": "kon", "setting": "[1]", "result": "6.88e+06", "unit": "M⁻¹ s⁻¹"}, {"measurement": "reporter gene assay IC50", "setting": "[2]", "result": 0.00753, "unit": "mg/L"}, {"measurement": "reporter gene assay Maximum Inhibition (%)", "setting": "[2]", "result": 88.9, "unit": "%"}]}
{"binder": "PRO963 (= PRO1051)(38_02_A04 sc01 scDb-i/33-03-G02 sc01 scDb-o/19-01-H04-sc03 scFv) (other) DIQMTQSPSSLSASVGDRVTITCQASQSINDYLAWYQQKPGKAPKLLIYKASTLASGVPSRFSGSGSGTDFTLTISSLQPEDFATYYCQQGYIITDIDNVFGTGTKVTVLGGGGGSQVQLQESGPGLVKPSETLSLTCKVSGFSFSNSYWICWIRQPPGKGLEWIGCTFVGSSDSTYYANWAKGRVTISVDSSKNQFSLKLSSVTAADTAVYYCARHPSDAVYGYANNLWGQGTLVTVSSGGGGSGGGGSGGGGSGGGGSIQMTQSPSSLSASVGDRVTITCQASQSINNVLAWYQQKPGKAPKLLIYRASTLASGVPSRFSGSGSGTDFTLTISSLQPEDFATYYCQSSYGNYGDFGTGTKVTVLGGGGGSQVQLQESGPGLVKPSETLSLTCKVSGFSFSSGYDMCWIRQPPGKGLEWIGCVVAGSVDITYYASWAKGRVTISVDSSKNQFSLKLSSVTAADTAVYYCARKDAYSDAFNLWGQGTLVTVSSGGGGSGGGGSIQMTQSPSSLSASVGDRVTITCQSSESVYSNNQLSWYQQKPGQPPKLLIYDASDLASGVPSRFSGSGSGTDFTLTISSLQPEDFATYYCAGGFSSSSDTAFGGGTKLTVLGGGGGSGGGGSGGGGSGGGGSEVQLVESGGGLVQPGGSLRLSCAASGFSLSSNAMGWVRQAPGKGLEYIGIISVGGFTYYASWAKGRFTISRDNSKNTVYLQMNSLRAEDTATYFCARDRHGGDSSGAFYLWGQGTLVTVSS", "values": [{"measurement": "NF-AT potency assay IC50 (with HSA)", "setting": "[3]", "result": 0.275, "unit": "mg/L"}]}
